# Assay results from US20090176711A1, “INHIBITORS OF AMYLOID PRECURSOR PROTEIN PROCESSING” (priority 2008, published 2009).
# Non-standard residues stand in square brackets, D forms with d. No end group written: not given here. *: point of attachment. Biotin = O=C1N[C@H]2[C@H](CS[C@H]2CCCCC(=O)*)N1; Dnp = O=[N+]([O-])c1ccc(*)c([N+](=O)[O-])c1; Mca = COc1ccc2c(CC(=O)*)cc(=O)oc2c1; Ahx = NCCCCCC(=O)O
# T1: N-terminally biotinylated Substrate M
# T1 construct: also called bio-Sub M; Sub M
# T1 peptide: Biotin-SEVNLDAEFR
# T2: N-terminally biotinylated Substrate W
# T2 construct: also called bio-Sub W; Sub W
# T2 peptide: Biotin-SEVKMDAEFR
# T3: f-Sub M (7-methoxycoumarin-4-acetyl-SEVNLDAEFRK(Dnp)-RR-NH2)
# T3 peptide: Mca-SEVNLDAEFRK(Dnp)RR-NH2
# Columns and labels:
# [1] = system: production of Aβ in HEK 293-APP cells; assay: Measurement of Aβ level in culture media of HEK293-APP cells (Aβ1-40 immunoassay); assay type: cell-based, human
# Description: Human embryonic kidney (HEK) 293 cells stably transformed with the gene for APP695 (HEK 293-APP) were used for studies on the inhibitory activity of HC peptides. HEK 293-APP cells were generously supplied by Dr. T W Kim (Columbia University, NY, USA). HEK 293-APP cells were cultured in Dulbecco's Modified Eagle's Medium (DMEM) (Invitrogen, CA, USA) with 10% fetal bovine serum (HyClone, UT, USA) and 300 μg/ml of geneticin (Invitrogen, CA, USA) in a humidified atmosphere of 5% CO2, 95% air at 37° C. Cells were subcultured after trypsinization, and the medium was changed every 2-3 days.
# Most of the APP processing including the cleavage by BACE1 occurs in endoplasmic reticulum (ER)/Golgi complex and endosome. It was investigated if c-Sub M and the deletion series would inhibit processing of APP in the cells. For this examination, HEK293 cells transformed with wild type human APP genes for our investigation was chosen.
# The culture media from the peptide-treated cells (see above) was harvested and centrifuged at 3500×g for 10 min. Amount of Aβ in the supernatant was determined with human Aβ1-40 immunoassay kits (Signal Select™, BioSource, CA, USA) according to the instruction provided by the company.
# [2] = system: cleavage of F-Substrate M (f-Sub M) by rhBACE1; assay: Fluorometric (FRET) assay for cleavage of F-Substrate M by rhBACE; assay type: biochemical, human; settings: cleavage of f-Sub M by rhBACE1 (FIG. 29A)
# Excerpt: This assay system utilizes fluorescence resonance energy transfer (FRET) technology. Substrate M was synthesized with two fluorophores, a fluorescent donor and a proprietary quenching acceptor (purchased from a commercial source, R&D Systems). […] Upon cleavage of substrate by β-secretase, the fluorophore is separated from the quenching group, restoring the full fluorescence yield of donor.
# Substrate labeled with fluorophores will be called F-Substrate M (R&D Systems). Recombinant human β-secretase will be called rhBACE (recombinant human β-site APP cleavage enzyme) (purchased from R&D systems).
# F-Substrate M (20 μM) was preincubated with varying concentrations of complementary peptides in assay buffer (0.1 M NaOAc, pH 4.0) for 1 hr at RT. rhBACE (70 nM) in assay buffer was added. Cleavage by rhBACE was detected by reading emitted fluorescence level.
# In this assay system, fluorescence resonance energy transfer (FRET) technology was utilized. Swedish mutant APP substrate (f-Sub M) with a fluorescent donor and a proprietary quenching acceptor (7-methoxycoumarin-4-acetyl-SEVNLDAEFRK(Dnp)-RR-NH2) was purchased from R&D systems, Inc (MN, USA). […] Upon cleavage of substrate by rhBACE1 (R&D Systems, Inc., MN, USA), the fluorescence donor is separated from the quenching group, restoring the full fluorescence yield of the donor. f-Sub M (10 μM) was pre-incubated with HC peptide in assay buffer (0.1 M NaOAc, pH 4.0) for 2 h at RT. After pre-incubation, substrate and HC peptide mixture in assay buffer was transferred to FluoroNunc™ 96 well white plate (Nunc, Roskilde, Denmark), and rhBACE1 (70 nM) was added. Time-dependent emission of fluorescence (excitation at 320 nm, emission at 405 nm) was monitored in a Molecular Devices SpectraMax Gemini EM fluorescence reader (CA, USA) for 1 h at 37° C. All assays were carried out in duplicate.
# [3] = system: CTFβ accumulation (cleavage of APP by BACE1) in HEK 293-APP cells; assay: Level of CTFβ in HEK 293-APP cells (immunoblot, 6E10); assay type: cell-based, human; settings: HEK293-APP cells, 9 h
# Description: When the confluency of the cells reached 90%, the cells were washed with PBS once, and HC peptide in serum free DMEM was added to the cells. […] The lysed cells were centrifuged at 12000×g for 10 min at 4° C. The protein in the supernatant was determined by bicinchoninic acid assay (Pierce, IL, USA) [Smith, P. K., Krohn, R. I., Hermanson, G. T., Mallia, A. K., Gartner, F. H., Provenzano, M. D., Fujimoto, E. K., Goeke, N. M., Olson, B. J., and Klenk, D. C. […] After electrophoresis, the proteins in the gel were electrophoretically transferred onto a polyvinylidene difluoride (PVDF) membrane at 100 mA for 80 min. The blotted membrane was fixed with 0.2% glutaraldehyde in PBS for 45 min at RT and treated for 5 min in boiling PBS. CTFβ (the C-terminal fragment of APP generated by BACE1) was detected by treatment of the membrane with 0.5 μg/ml of anti-Aβ Nterminal 6E10 antibody (Signetlabs, Inc., MA, USA) followed by incubation with 0.2 μg/ml of anti-mouse antibody coupled with HRP (Amersham Biosciences Ltd. Uppsala, Sweden). The developed film was scanned and the density of CTFβ band was determined by Scion Image Program (Scion Corporation, MD, USA).
# [4] = target: T1, N-terminally biotinylated Substrate M; assay: plate assay: HC peptide chemically coupled to wells, bio-Sub M, streptavidin-HRP (Table 1)
# Description: (§1) Reacti-Bind™ maleic anhydride-activated polystyrene plate (Pierce, IL, USA) was coated with 50 μl of HC peptide (200 μM in distilled water) by chemical coupling for 3 h at room temperature (RT) and washed three times with phosphate buffered saline (PBS) containing 0.05% tween 20 (PBST). The plate was blocked with blocking buffer (0.5% gelatin in PBS) for 1 h at RT. After discarding blocking buffer, biotinylated BACE1 substrates (200 μM) in blocking buffer was applied on the plate and incubated for 2.5 h at RT. Each well was washed three times with PBST. The bound biotinylated BACE1 substrates were detected by incubation with streptavidin-horseradish peroxidase (Str-HRP, 125 mU/ml in blocking buffer) for 2 h at RT. Color reaction was carried out with 50 μl of 3,3′,5,5′-Tetramethylbenzidine Liquid Substrate (Sigma-Aldrich, MO, USA). After stopping the reaction by addition of an equal volume of 1 N HCl, absorbance at 450 nm was read in an automated ELISA reader (EL 312e, Bio-Tek Instruments, VT, USA). All assays were carried out in duplicate.
# The HC peptides were chemically coupled to the surface of a microtiter plate to minimize the different coating efficiency of peptides, and the Sub M labeled with biotin (bio-Sub M) was applied. bio-Sub M bound to c-Sub but not to Sub M-c (FIG. 25A). To test inhibitory activity of HC peptide, FRET assay system was used as described above. […]
# [5] = target: T2, N-terminally biotinylated Substrate W; assay: plate assay: complementary peptide on wells, biotinylated substrate, streptavidin-HRP
# Description: (§2) Complementary peptides (0.2, 2, 20, and 200 μM) were dissolved in phosphate buffered saline (PBS) (pH 7.4) and fixed to microtiter wells for 5 hr at 37° C. The wells were blocked with blocking buffer (3% BSA/PBS) for 1 hr at 37° C. Either N-terminally biotinylated Substrate W or M (20 μM) in blocking buffer was added and incubated for overnight at 4° C. Streptavidin-horseradish peroxidase in blocking buffer was added to detect resulting bound substrates. The plate was incubated for 2 hr at room temperature (RT), followed by addition of 3,3′,5,5′-tetramethyl-benzidine (TMB) as substrate for horseradish peroxidase for color reaction.
# [6] = target: T3, f-Sub M …; assay: cell-based or functional assay
# [7] = target: T1, N-terminally biotinylated Substrate M; assay: plate assay: HC peptide chemically coupled to wells, bio-Sub M, streptavidin-HRP (Table 2)
# Description: as §1
# The binding and inhibitory activities of these peptides were determined as described in Experimental Procedures. The concentration of HC peptides and f-Sub M was 0.5 mM and 10 μM, respectively. All the experimental data for the binding activity as well as for the inhibitory activity were within 5% error range.
# [8] = target: T2, N-terminally biotinylated Substrate W; assay: plate assay: HC peptide chemically coupled to wells, bio-Sub W, streptavidin-HRP (FIG. 27)
# Description: as §1
# Thereafter, it was investigated if the c-Sub M and the deletions series bind to wild type Sub W. The results will give us important information on possibility of inhibition of wild type of APP cleavage in cells by the HC peptides derived from Sub M in view of the poor cleavage of Sub W by rhBACE1 in vitro. […] Thus, there is possibility that the HC peptides for Sub M (c-Sub M series) or its peptidomimetics will inhibit the cleavage of wild type APP by BACE1 in cells.
# [9] = target: T4, recombinant human β-secretase (rhBACE1) (human, UniProt P56817 22-457, limits assumed); assay: ELISA, c-Sub M immobilized
# T4 construct: Bought reagent; also called recombinant human β-site APP cleavage enzyme
# [10] = target: T1, N-terminally biotinylated Substrate M; assay: plate assay: complementary peptide on wells, biotinylated substrate, streptavidin-HRP
# Description: as §2
# T4 sequence (P56817 22-457 limits assumed): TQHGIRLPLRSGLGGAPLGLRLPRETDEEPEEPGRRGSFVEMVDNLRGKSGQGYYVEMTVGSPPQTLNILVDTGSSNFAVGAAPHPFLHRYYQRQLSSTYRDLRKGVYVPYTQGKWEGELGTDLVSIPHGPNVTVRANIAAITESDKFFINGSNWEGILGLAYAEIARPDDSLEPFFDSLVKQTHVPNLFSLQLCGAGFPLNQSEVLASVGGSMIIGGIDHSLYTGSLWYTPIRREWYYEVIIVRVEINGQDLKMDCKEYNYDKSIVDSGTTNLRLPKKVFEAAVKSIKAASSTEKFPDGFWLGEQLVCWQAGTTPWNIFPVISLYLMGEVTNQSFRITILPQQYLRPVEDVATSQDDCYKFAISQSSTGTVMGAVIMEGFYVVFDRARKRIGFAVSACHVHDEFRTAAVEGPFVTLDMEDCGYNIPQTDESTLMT
molecule,measurement,setting,value
NH2-(CH2)5-CO-Cys-Ile-Gln-Ile-His-Phe-NH2 ([Ahx]CIQIHF-NH2; N-terminus assumed; SMILES CC[C@H](C)[C@H](NC(=O)[C@H](CCC(N)=O)NC(=O)[C@@H](NC(=O)[C@H](CS)NC(=O)CCCCCN)[C@@H](C)CC)C(=O)N[C@@H](Cc1c[nH]cn1)C(=O)N[C@@H](Cc1ccccc1)C(N)=O) [AHX-c-Sub M ΔN3C1],reduction of amount of Aβ released,"[1]; 6.25 μM, 9 h",about 70%
same,amount of Aβ released into the culture medium,[1]; increasing concentrations,reduced in a concentration dependent manner
same,in vitro inhibitory activity relative to non-modified c-Sub M ΔN3C1,[2],by half
same,accumulation of the cleavage product CTFβ,[3],inhibited the accumulation of both forms of CTFβs
β-secretase inhibitor IV [reference compound],inhibition of production of Aβ,[1]; 2 μM,about 90%
same,accumulation of the cleavage product CTFβ,[3],inhibited accumulation of only the nonphosphorylated form of CTFβ
"RLHFYLRLKA-NH2 (Hydropathic complementary decapeptide to Sub W, read 3'-5') [Sub W-c]",binding result,[4],binds
"SEFCIHLHFR-NH2 (Hydropathic complementary decapeptide to Sub W, read 5'-3') [c-Sub W]",binding result,[4],binds
same,binding result,[5],binds
SEFCIQIHF-NH2 [c-Sub M ΔC1],"inhibitory activity for the cleavage of f-Sub M by rhBACE1 (FRET; HC peptide 1 mM, f-Sub M 10 µM)",[6],90%
same,binding result,[7],binds
"SEFCIQIHFR-NH2 (Hydropathic complementary decapeptide to Sub M, read 5'-3') [c-Sub M]",fold binding to Sub W relative to c-Sub W,[8],4 fold
same,"inhibition of cleavage of f-Sub M by rhBACE1 (FRET), HC peptide 100 fold over substrate",[6],~50%
same,"inhibitory activity for the cleavage of f-Sub M by rhBACE1 (FRET; HC peptide 1 mM, f-Sub M 10 µM)",[6],45%
same,binding result,[9],no binding
same,binding result,[10],binds
